Experimental findings from patent US20210355180A1 are described below.

Assay [1] deals with N-terminally biotinylated human Aβ1-40 peptide (human). The experiment in a line: ELISA, ABD periplasm captured on anti-ABD, 2 nM biotinylated hAβ1-40.
The target is the same in assay [2]. Nature of the assay: SPR (Biacore 2000), periplasm diluted 15x over hAβ1-40 surface (blank control).

N-terminally biotinylated human Aβ1-40 peptide (human), sequence (peptide, as listed by the source): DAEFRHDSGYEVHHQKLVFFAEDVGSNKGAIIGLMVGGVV

For “ABD (albumin binding domain GA3 from streptococcal Protein G), periplasm control (from UniProt P19909 254-299)”, in assay [1], the ELISA response (absorbance 450 nm) is 0.063 AU. Besides, the Response RU in assay [2] is 2 RU.
